We go through three substances from paper PMC9604513, “De novo selected hACE2 mimics that integrate hotspot peptides with aptameric scaffolds for binding tolerance of SARS-CoV-2 variants” (Science Advances, 2022).

Data set [1] concerns the target SARS-CoV-2 RBD wild type (SARS-CoV-2 (wild type)) (UniProt P0DTC2). The data set is described as follows: flow cytometry bead binding. The following applies: 5'-hexynyl clicked to C-terminal azide of peptide LGKGDFR. (Flow cytometry measures light scatter and fluorescence of single cells or particles in a stream.)
For data set [2], the system named is pseudotyped SARS-CoV-2. The class given is cell-based, SARS-CoV-2 (human hACE2-293T cells).
For data set [3], the target named is RBD-hACE2 binding (Severe acute respiratory syndrome coronavirus 2, UniProt P0DTC2). As to conditions: ELISA, 3 μM, n = 3 independent replicates. In general terms: In an ELISA, binding on a coated surface is turned into a signal by an enzyme label.

Regarding “GGAAGAGATGGCGACCACACCAAATCTGAGTCTACCCCATGAAGGAGCTGATCCTGATGG [R7-03 hybrid ligand (LGKGDFR-DNA)]”, the binding signal (RBD-binding fraction relative to R7-02) in data set [1] worked out at 0.125. The same measure, in the same setting: with “GGAAGAGATGGCGACCTCCACAACCGCTGATCGACGCAGATCTTGTGGGTAGCTGATCCTGATGG [R7-01 hybrid ligand (LGKGDFR-DNA)]” the figure was 0.2.

As for LGKGDFR [LGKGDFR peptide], the “percentage of GFP-expressing infected cells over the total hACE2-293T cells” value in data set [2] is 22.0%. Moreover, the “inhibition of RBD-hACE2 interaction” value in data set [3] amounted to 11.69%.
